From doi:10.1101/2020.06.12.149468v2 (biorxiv, 2026)

T1: mouse NR4A3 ligand-binding domain (Mus musculus, UniProt Q9QZB6)
T1 sequence (Q9QZB6 395-624): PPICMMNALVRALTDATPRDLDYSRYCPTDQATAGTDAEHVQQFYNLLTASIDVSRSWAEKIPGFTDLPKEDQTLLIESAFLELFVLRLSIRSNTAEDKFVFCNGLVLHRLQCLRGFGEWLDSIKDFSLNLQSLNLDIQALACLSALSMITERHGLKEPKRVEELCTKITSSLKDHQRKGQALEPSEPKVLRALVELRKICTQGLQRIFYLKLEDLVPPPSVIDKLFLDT


Key:
[1] = tested on: C[C@]12CCC(=O)C=C1CC[C@@H]1[C@@H]2[C@@H](O)C[C@@]2(C)[C@H]1CC[C@]2(O)C(=O)CO; assay: purified protein; details: 50 mM phosphate pH 7.5, NADH
[2] = molecular target: T1, mouse NR4A3 ligand-binding domain; assay: isothermal titration calorimetry
[3] = substrate: C[C@]12CCC(=O)C=C1CC[C@@H]1[C@@H]2[C@@H](O)C[C@@]2(C)[C@H]1CC[C@]2(O)C(=O)CO; assay: purified protein; details: 50 mM phosphate pH 7.5, NADH; remark: listed apart in the source

Molecule | Km [1] | kcat [1] | further results
DesC ([Clostridium] scindens ATCC 35704; Y101R) | 628.65 ± 29.96 µM | 0.0295 ± 0.005 s⁻¹ | –
C[C@]12CCC(=O)C=C1CC[C@@H]1[C@@H]2[C@@H](O)C[C@@]2(C)[C@H]1CC[C@]2(O)[C@@H](O)CO [20α-dihydrocortisol] | – | – | Kd [2]: 21.9 ± 2.6 µM
DesC ([Clostridium] scindens ATCC 35704; Y124R) | 61.01 ± 2.71 µM | 0.134 ± 0.00233 s⁻¹ | –
DesC ([Clostridium] scindens ATCC 35704; S47T) | 77.78 ± 1.78 µM | 0.011 ± 0.00067 s⁻¹ | –
DesC ([Clostridium] scindens ATCC 35704; H50A) | 23.99 ± 0.26 µM | 0.208 ± 0.0148 s⁻¹ | –
CCCCC[C@H](O)/C=C/[C@H]1C=CC(=O)[C@@H]1C/C=C\CCCC(=O)O [PGA2] | – | – | Kd [2]: 66.6 ± 17.4 µM
DesC ([Clostridium] scindens ATCC 35704) (protein) MRQLFVTSIRDFEKNTMGTVDMMEAPMPEPKDEEIRIKVVYASICGSDTHILTGNLGEMESTTRSMLPMSFGHELSGVIDKVGSTAEKMGFKVGQKVVANYAKYCGCCENCREGKVNLCSNMGYRMNGFSEYAVYHMSQIFPIPDDADLKDYALVEPLTVALSSAEQAKISYGKSVAIMGAGGLGMMLVQLARLAGASTITVFDIVPEKLELALENGADYALNSAEEGVAERAIELAGGRYDCVLEGTGATAAAKLGLQLLARDGDAVYFAMYGKDPILPVNLQSDLYWDQKHIHGMIQGAWQFPKSIRMIPRMDFSKIIQKEHTLTNYKQAFEDLYSKKYAKIVIKMDE | – | – | Km [3]: 11.62 ± 1.02 µM; kcat [3]: 1.538 ± 0.125 s⁻¹
